This note sets out measurements from publication PMC9482650, “Quantitative fragmentomics allow affinity mapping of interactomes” (Nature Communications, 2022).

Among the targets are PICK1, Q9NRD5; NOS1, P29475; AHNAK1, Q09666; MAST1, Q9Y2H9; PTPN3, P26045; MAGI2_5, Q86UL8; DLG1_3, Q12959; TJP1_2, Q07157; IL16_3, Q14005; DLG2_3, Q15700; NHERF4_2, Q86UT5; HTRA1, Q92743.
Common to all, as to test: holdup assay
Holding throughout (parameters): key: below the threshold = too weak to quantify, mostly under pKd 3.1 to 4
Holding throughout (details): plain residues with an end cap or a label only (N-terminal biotin on a linker: ado-ado)

The target of another experiment is T1, MPDZ_5, O75970.
T1 sequence (O75970 695-796, limits assumed, looked up): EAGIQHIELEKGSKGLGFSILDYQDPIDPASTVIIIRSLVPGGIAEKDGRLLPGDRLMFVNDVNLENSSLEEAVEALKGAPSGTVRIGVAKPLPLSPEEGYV

For another experiment, the target named is T2, MPDZ_12, O75970.
T2 sequence (O75970 1857-1958, limits assumed, looked up): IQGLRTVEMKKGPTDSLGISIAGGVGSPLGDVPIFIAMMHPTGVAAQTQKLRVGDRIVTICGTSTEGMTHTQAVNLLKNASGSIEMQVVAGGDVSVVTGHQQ

A further experiment has as its target T3, DLG3_1, Q92796.
T3 sequence (Q92796 125-227, limits assumed, looked up): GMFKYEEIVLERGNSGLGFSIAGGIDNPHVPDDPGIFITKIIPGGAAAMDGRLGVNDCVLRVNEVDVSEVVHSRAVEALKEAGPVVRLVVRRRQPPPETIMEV

For another experiment, the target named is T4, LRRC7, Q96NW7.
T4 sequence (Q96NW7 1440-1537, limits assumed, looked up): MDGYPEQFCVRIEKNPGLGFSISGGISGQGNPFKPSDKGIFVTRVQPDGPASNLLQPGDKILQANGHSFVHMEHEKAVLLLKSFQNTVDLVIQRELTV

The target in the next experiment is T5, APBA3_1, O96018.
T5 sequence (O96018 389-490, limits assumed, looked up): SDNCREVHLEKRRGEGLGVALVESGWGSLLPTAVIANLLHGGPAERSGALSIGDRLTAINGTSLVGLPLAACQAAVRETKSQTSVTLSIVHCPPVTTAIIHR

The next experiment addresses T6, MPDZ_10, O75970.
T6 sequence (O75970 1624-1722, limits assumed, looked up): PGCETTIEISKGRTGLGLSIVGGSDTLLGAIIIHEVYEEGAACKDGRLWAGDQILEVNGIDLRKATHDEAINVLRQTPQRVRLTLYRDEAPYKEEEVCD

A further experiment has as its target T7, PDZRN3_1, Q9UPQ7.
T7 sequence (Q9UPQ7 244-349, limits assumed, looked up): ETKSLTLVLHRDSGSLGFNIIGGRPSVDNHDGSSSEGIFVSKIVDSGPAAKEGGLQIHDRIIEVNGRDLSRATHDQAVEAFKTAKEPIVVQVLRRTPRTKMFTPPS

The target in a further experiment is T8, DFNB31_3, Q9P202.
T8 sequence (Q9P202 811-907, limits assumed, looked up): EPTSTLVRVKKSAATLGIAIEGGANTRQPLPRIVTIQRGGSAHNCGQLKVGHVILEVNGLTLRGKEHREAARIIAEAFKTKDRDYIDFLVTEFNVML

A further experiment addresses T9, TX1BP3, O14907.
T9 sequence (O14907 10-122, limits assumed, looked up): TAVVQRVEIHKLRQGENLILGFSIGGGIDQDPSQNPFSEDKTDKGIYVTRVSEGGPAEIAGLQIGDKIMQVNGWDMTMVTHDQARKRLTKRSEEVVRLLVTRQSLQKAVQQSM

In another experiment the target is T10, NHERF3_4, Q5T2W1.
T10 sequence (Q5T2W1 373-468, limits assumed, looked up): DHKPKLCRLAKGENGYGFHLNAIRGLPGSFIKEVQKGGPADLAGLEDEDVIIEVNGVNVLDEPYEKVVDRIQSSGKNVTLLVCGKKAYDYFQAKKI

For a further experiment, the target named is T11, ARHGEF11, O15085.
T11 sequence (O15085 42-136, limits assumed, looked up): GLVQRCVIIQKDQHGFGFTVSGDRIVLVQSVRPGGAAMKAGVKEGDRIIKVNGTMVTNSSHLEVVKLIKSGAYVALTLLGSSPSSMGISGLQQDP

The target of a further experiment is T12, LIN7A, O14910.
T12 sequence (O14910 103-200, limits assumed, looked up): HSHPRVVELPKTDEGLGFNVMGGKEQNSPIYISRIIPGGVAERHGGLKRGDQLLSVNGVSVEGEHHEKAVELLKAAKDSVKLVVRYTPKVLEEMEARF

Sequence of PICK1, Q9NRD5 (Q9NRD5 17-115): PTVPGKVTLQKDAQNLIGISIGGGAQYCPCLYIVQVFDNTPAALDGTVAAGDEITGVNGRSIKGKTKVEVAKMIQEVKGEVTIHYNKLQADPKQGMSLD
Sequence of MAST1, Q9Y2H9 (Q9Y2H9 962-1065): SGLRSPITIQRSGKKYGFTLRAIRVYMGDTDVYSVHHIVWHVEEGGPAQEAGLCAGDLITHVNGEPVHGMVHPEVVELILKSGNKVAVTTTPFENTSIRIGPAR
Sequence of IL16_3, Q14005 (Q14005 1107-1207): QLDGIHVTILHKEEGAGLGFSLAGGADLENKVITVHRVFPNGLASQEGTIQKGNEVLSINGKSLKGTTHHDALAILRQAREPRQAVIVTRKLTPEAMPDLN
Sequence of AHNAK1, Q09666 (Q09666 4-100): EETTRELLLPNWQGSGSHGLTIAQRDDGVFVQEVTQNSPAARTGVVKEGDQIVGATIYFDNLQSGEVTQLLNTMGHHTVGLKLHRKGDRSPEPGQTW
Sequence of NHERF4_2, Q86UT5 (Q86UT5 220-308): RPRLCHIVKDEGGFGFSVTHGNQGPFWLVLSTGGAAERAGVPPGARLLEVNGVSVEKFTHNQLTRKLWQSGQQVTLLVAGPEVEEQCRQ
Sequence of MAGI2_5, Q86UL8 (Q86UL8 915-1017): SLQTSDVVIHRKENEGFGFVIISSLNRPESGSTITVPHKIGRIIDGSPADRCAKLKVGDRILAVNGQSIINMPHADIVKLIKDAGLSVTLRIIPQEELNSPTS
Sequence of PTPN3, P26045 (P26045 505-587): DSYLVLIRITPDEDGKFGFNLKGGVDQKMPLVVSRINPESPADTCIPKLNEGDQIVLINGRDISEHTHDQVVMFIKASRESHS
Sequence of DLG1_3, Q12959 (Q12959 457-571): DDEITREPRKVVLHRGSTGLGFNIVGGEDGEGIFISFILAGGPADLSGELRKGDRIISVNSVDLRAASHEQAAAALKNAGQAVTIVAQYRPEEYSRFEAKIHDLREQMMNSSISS
Sequence of HTRA1, Q92743 (Q92743 360-477): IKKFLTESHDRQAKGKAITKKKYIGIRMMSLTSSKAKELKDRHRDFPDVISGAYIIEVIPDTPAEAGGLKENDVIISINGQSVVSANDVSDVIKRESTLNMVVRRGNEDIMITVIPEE
Sequence of TJP1_2, Q07157 (Q07157 181-274): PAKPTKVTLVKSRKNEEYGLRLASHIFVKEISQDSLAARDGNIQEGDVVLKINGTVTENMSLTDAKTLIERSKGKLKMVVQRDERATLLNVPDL
Sequence of NOS1, P29475 (P29475 9-101): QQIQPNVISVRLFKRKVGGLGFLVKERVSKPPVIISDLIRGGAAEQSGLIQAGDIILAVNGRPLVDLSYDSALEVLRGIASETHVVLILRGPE

Take PGKKPEDSRV [SLCO2B1, O94956]: the negative-log Kd (pKd) (in general, the negative decadic logarithm of the Kd, by convention in mol/L) with MPDZ_5, O75970 is recorded as “below the threshold”; with MPDZ_12, O75970, “below the threshold”; with DLG3_1, Q92796, “below the threshold”; with PICK1, Q9NRD5, “below the threshold”; with NOS1, P29475 it was “below the threshold”; in the experiment with AHNAK1, Q09666 it was “below the threshold”. Further, the pKd entry in the experiment with MAST1, Q9Y2H9 was “below the threshold”; with PTPN3, P26045 it was “below the threshold”; in the experiment with LRRC7, Q96NW7, “below the threshold”; with APBA3_1, O96018, “below the threshold”; in the experiment with MAGI2_5, Q86UL8, “below the threshold”; in the experiment with MPDZ_10, O75970, “below the threshold”. The pKd result was “below the threshold” with PDZRN3_1, Q9UPQ7; “below the threshold” in the experiment with DLG1_3, Q12959; “below the threshold” with TJP1_2, Q07157; “below the threshold” with DFNB31_3, Q9P202; 3.54 in the experiment with TX1BP3, O14907; “below the threshold” in the experiment with NHERF3_4, Q5T2W1. Moreover, the pKd with ARHGEF11, O15085 is 3.48; with IL16_3, Q14005, “below the threshold”; with DLG2_3, Q15700 it was “below the threshold”; with NHERF4_2, Q86UT5 it was “below the threshold”; with HTRA1, Q92743 it was “below the threshold”; in the experiment with LIN7A, O14910, “below the threshold”.

In the case of SGDGKTSVWI [GJC1, P36383], the pKd entry in the experiment with MPDZ_5, O75970 is “below the threshold”; in the experiment with MPDZ_12, O75970 it was 4.1; with DLG3_1, Q92796, “below the threshold”; with PICK1, Q9NRD5 it was “below the threshold”; in the experiment with NOS1, P29475, 4.1; with AHNAK1, Q09666 it was “below the threshold”. Besides, the pKd entry with MAST1, Q9Y2H9 was “below the threshold”; with PTPN3, P26045, 4.06; in the experiment with LRRC7, Q96NW7, 3.49; with APBA3_1, O96018 it was “below the threshold”; with MAGI2_5, Q86UL8 it was “below the threshold”; with MPDZ_10, O75970 it was “below the threshold”. In addition, the pKd entry in the experiment with PDZRN3_1, Q9UPQ7 was “below the threshold”; with DLG1_3, Q12959, “below the threshold”; with TJP1_2, Q07157, 5; with DFNB31_3, Q9P202, “below the threshold”; with TX1BP3, O14907 it was “below the threshold”; with NHERF3_4, Q5T2W1, 3.52. Further, the pKd is 3.61 in the experiment with ARHGEF11, O15085; “below the threshold” with IL16_3, Q14005; 3.83 with DLG2_3, Q15700; “below the threshold” with NHERF4_2, Q86UT5; 4.93 with HTRA1, Q92743; “below the threshold” with LIN7A, O14910.

GNDPDRGTSI [GRID2, O43424]: the pKd entry with MPDZ_5, O75970 was “below the threshold”; with MPDZ_12, O75970 it was “below the threshold”; with DLG3_1, Q92796, “below the threshold”; with PICK1, Q9NRD5 it was “below the threshold”; in the experiment with NOS1, P29475 it was 3.75; with AHNAK1, Q09666, “below the threshold”. In addition, the pKd in the experiment with MAST1, Q9Y2H9 is 3.94; with PTPN3, P26045, 4.52; with LRRC7, Q96NW7, “below the threshold”; with APBA3_1, O96018 it was “below the threshold”; with MAGI2_5, Q86UL8 it was “below the threshold”; with MPDZ_10, O75970 it was “below the threshold”. Also, the pKd with PDZRN3_1, Q9UPQ7 was 3.88; with DLG1_3, Q12959, “below the threshold”; in the experiment with TJP1_2, Q07157, “below the threshold”; with DFNB31_3, Q9P202, “below the threshold”; with TX1BP3, O14907 it was “below the threshold”; in the experiment with NHERF3_4, Q5T2W1, “below the threshold”. The pKd result was “below the threshold” in the experiment with ARHGEF11, O15085; “below the threshold” in the experiment with IL16_3, Q14005; 3.69 with DLG2_3, Q15700; “below the threshold” in the experiment with NHERF4_2, Q86UT5; “below the threshold” with HTRA1, Q92743; “below the threshold” with LIN7A, O14910.

On to EPAKETTTNV [SLC2A3, P11169], for which the pKd result with MPDZ_5, O75970 is “below the threshold”; with MPDZ_12, O75970, “below the threshold”; with DLG3_1, Q92796, 3.48; with PICK1, Q9NRD5, “below the threshold”; in the experiment with NOS1, P29475, “below the threshold”; with AHNAK1, Q09666, “below the threshold”. Moreover, the pKd with MAST1, Q9Y2H9 was 4.46; with PTPN3, P26045, 4.49; with LRRC7, Q96NW7, “below the threshold”; with APBA3_1, O96018, “below the threshold”; with MAGI2_5, Q86UL8, “below the threshold”; with MPDZ_10, O75970, “below the threshold”. Moreover, the negative-log Kd (pKd) entry with PDZRN3_1, Q9UPQ7 was “below the threshold”; in the experiment with DLG1_3, Q12959, 3.6; in the experiment with TJP1_2, Q07157 it was “below the threshold”; in the experiment with DFNB31_3, Q9P202, 4.05; in the experiment with TX1BP3, O14907, 4.12; with NHERF3_4, Q5T2W1, “below the threshold”. Besides, the pKd was 4 with ARHGEF11, O15085; “below the threshold” with IL16_3, Q14005; “below the threshold” with DLG2_3, Q15700; 3.56 with NHERF4_2, Q86UT5; 4.04 with HTRA1, Q92743; “below the threshold” with LIN7A, O14910.
